Source: the Human Domainome abundance scans (Beltran et al. 2025)
± gives the uncertainty stated by the source.

B1: PDZ and LIM domain protein 2, residues 284 to 339; numbered along this chain, Q96JY6 (parent)
chain: HTCEKCSTSIANQAVRIQEGRYRHPGCYTCADCGLNLKMRGHFWVGDELYCEKHAR

Variants of: B1
Assay: abundance fitness (aPCA) (normalised: wild type 0, dead -1); higher = more abundant; growth selection in yeast, the domain comes from the species named
Settings: Homo sapiens

Abundance fitness, by site and new letter:
F43: D 0.087 ± 0.066 | G -0.048 ± 0.049 | T -0.04 ± 0.085 | M -0.208 ± 0.13 | S -0.056 ± 0.084 | Y -0.145 ± 0.11 | P -0.058 ± 0.084 | K -0.381 ± 0.12 | L -0.048 ± 0.066 | N 0.071 ± 0.19 | E -0.057 ± 0.1 | Q -0.26 ± 0.13 | A -0.189 ± 0.088 | W 0.099 ± 0.074 | V -0.423 ± 0.093 | I -0.084 ± 0.17
L35: V 0.053 ± 0.064 | G 0.053 ± 0.081 | I 0.05 ± 0.082 | M 0.102 ± 0.12 | P -0.518 ± 0.14 | T 0.167 ± 0.11 | C -0.214 ± 0.14 | W -0.054 ± 0.088 | Y 0.01 ± 0.12 | R -0.187 ± 0.074 | E 0.086 ± 0.086 | A 0.102 ± 0.072 | D 0.202 ± 0.087 | S 0.005 ± 0.07 | N 0.062 ± 0.14 | F 0.178 ± 0.13 | H -0.015 ± 0.089
C30: W -1.05 ± 0.23 | K -1.13 ± 0.38 | S -0.921 ± 0.15 | A -1.01 ± 0.082 | L -1.03 ± 0.14 | G -0.618 ± 0.12 | M -0.712 ± 0.13 | E -0.834 ± 0.075 | P -0.671 ± 0.17 | I -1.06 ± 0.36 | N -0.788 ± 0.35 | T -0.642 ± 0.07 | H -0.669 ± 0.47 | Y -0.956 ± 0.12 | V -0.789 ± 0.19
M39: W -0.523 ± 0.068 | H -0.116 ± 0.18 | G 0.223 ± 0.055 | A 0.226 ± 0.066 | Q 0.048 ± 0.12 | S 0.057 ± 0.064 | C -0.186 ± 0.17 | F -0.186 ± 0.069 | Y 0.002 ± 0.067 | E 0.286 ± 0.063 | T 0.173 ± 0.086 | L -0.123 ± 0.075 | I -0.347 ± 0.19 | K 0.071 ± 0.1 | N 0.095 ± 0.13 | P 0.422 ± 0.11
K38: L -0.702 ± 0.1 | E 0.311 ± 0.071 | S 0.056 ± 0.076 | I -0.703 ± 0.22 | R -0.366 ± 0.076 | M -0.08 ± 0.098 | Y -0.037 ± 0.14 | Q -0.263 ± 0.16 | G 0.103 ± 0.056 | H -0.197 ± 0.16 | A 0.189 ± 0.1 | C -0.24 ± 0.083 | N -0.124 ± 0.15 | W -0.445 ± 0.13 | V -0.447 ± 0.098 | F -0.495 ± 0.17 | T -0.115 ± 0.12
D47: E -0.12 ± 0.14 | M -0.086 ± 0.11 | R 0.008 ± 0.061 | Y -0.224 ± 0.098 | N -0.11 ± 0.14 | K 0.052 ± 0.12 | V -0.229 ± 0.089 | L -0.026 ± 0.073 | I -0.135 ± 0.081 | S 0.004 ± 0.077 | F -0.339 ± 0.21 | G -0.11 ± 0.075 | H -0.136 ± 0.098 | C -0.002 ± 0.11 | T -0.047 ± 0.068 | W -0.1 ± 0.059
W44: M -0.034 ± 0.13 | Y 0.128 ± 0.19 | E 0.139 ± 0.092 | C 0.005 ± 0.15 | V 0.044 ± 0.09 | F 0.025 ± 0.12 | K -0.208 ± 0.14 | H 0.15 ± 0.084 | Q 0.096 ± 0.13 | R -0.045 ± 0.073 | A 0.163 ± 0.062 | S 0.027 ± 0.098 | N -0.24 ± 0.25 | I 0.352 ± 0.14 | L 0.096 ± 0.057 | T -0.232 ± 0.14 | P 0.205 ± 0.064
C33: W -0.765 ± 0.17 | L -0.549 ± 0.084 | S -0.828 ± 0.11 | A -0.94 ± 0.072 | V -0.885 ± 0.15 | R -0.964 ± 0.086 | Y -0.823 ± 0.15 | H -0.709 ± 0.12 | G -0.682 ± 0.061 | N -0.741 ± 0.083 | F -0.876 ± 0.14 | T -0.747 ± 0.1 | M -0.947 ± 0.079 | D -0.695 ± 0.19 | E -1.05 ± 0.18 | P -0.757 ± 0.16
T29: W -0.758 ± 0.12 | Y -0.17 ± 0.065 | V -0.309 ± 0.076
E48: G 0.079 ± 0.079 | K -0.034 ± 0.12 | C -0.289 ± 0.23 | T -0.286 ± 0.12 | V -0.011 ± 0.095 | M -0.18 ± 0.12 | L -0.082 ± 0.09 | A -0.091 ± 0.061 | H -0.084 ± 0.32 | N 0.203 ± 0.14 | Y -0.235 ± 0.075 | Q -0.292 ± 0.14 | R -0.079 ± 0.08 | P -0.788 ± 0.1 | D -0.065 ± 0.19 | I -0.174 ± 0.11 | S -0.074 ± 0.11
D32: H 0.027 ± 0.11 | W -0.235 ± 0.06 | P -0.824 ± 0.17 | Q -0.336 ± 0.096 | F 0.006 ± 0.082 | V -0.245 ± 0.093 | E -0.171 ± 0.083 | C -0.188 ± 0.12 | T 0.057 ± 0.061 | A -0.361 ± 0.078 | Y -0.106 ± 0.087 | S -0.193 ± 0.072 | L -0.099 ± 0.075 | M -0.022 ± 0.095 | I -0.284 ± 0.11 | R 0.124 ± 0.077 | G -0.178 ± 0.054
